Sequences and labels used below:
B1: 4-N22-A (antibody, V domains shown)
VH: QVQLQQPGTELVKPGASVKLSCKASGYTFTNYWMYWVKQRPGQGLDWIGNINPSNGGTNYNEKFKSKATLTVDKSSSTAYMQLSSLTSEDSAVYYCARETGNYWGQGTTLTVSS
VL: DILMTQSPSSMSVSLGDTVSISCHASQGISSNIGWLQQKPGKSFKGLIYHGTNLEDGVPSRFSGSGSGADYSLTISSLESEDFADYYCVQYAQFPYTFGGGTKLEIK
B2: 8-H5-A (antibody, V domains shown)
VH: QVTLKESGPGILQSSQTLSLTCSLSGFSLSTSGMGVSWVRQPSGKGLEWLAHIYWDDDKRYTPSLKSRLTISTDSSRKQVFLKITSVDTADTATYYCARRDLHDYDGWFAYWGQGTLVTVSA
VL: DIVMTQSQKFMSTAVGDRVSVTCKASQNVGTNVAWYQQKPGQSPKALIYSASFRYSGVPDRFSGSGSGTDFTLTISNVQSEDLAEYFCQQYNSYPLTFGSGTKLEIK
B3: 10-L24-A (antibody, V domains shown)
VH: EVQLQQSGPELVKPGASVKISCKASGYTFTDYYMNWVKQSHGKSLEWIGDINSNNGGTTYDQKFKGKATLTVDRSSSTAYMELRSLTSEDSAVYYCARRGDGHFGGFTYWGQGTLVTVSA
VL: not shown
B4: 1-B11-A (antibody, V domains shown)
VH: QVQLQQSGPELVKPGASVKISCKASGYTFTDHYINWVKQRPGQGLEWIGWIFPGSGSTYYNEQFKGKATLTVDKSSNTAYMLLSSLTSEDSAVYFCARSGGLRLGFAYWGQGTLVTVSA
VL: DIQMTQTTSSLSASLGDRVTISCRASQDISNYLNWYQQKPDGTVKLLIYYTSRLHSGVPSRFSGSGSGTDYSLTISNLEQEDISTYFCQQVNTLPYTFGGGTKLEIK
B5: 3-E2-A (antibody, V domains shown)
VH: B3 VH with S53P, T59S, D61T, R74K, T78K, F104Y
VL: not shown
B6: 2-O12-A (antibody, V domains shown)
VH: B3 VH
VL: not shown
B7: 4-M3-A (antibody, V domains shown)
VH: EVQLQQSGPELVKPGDSVKISCKASGYSFTGYFMNWVMQSHGKSLEWIGRINPNNGETFYNQKFKGKATLTVDKSSDTAHMELRSLTSEDSAVYYCARGGTGTGWGQGTTLTVSS
VL: B1 VL with S22T, H50Y, F83L, V89I
B8: 2-H7-A (antibody, V domains shown)
VH: QAYLQQSGAELVRPGASVKMSCKASGYTFTGYTMHWVKQTPRQGLEWIGAIYPENGDTSYNQKFKGKATLTVDKSSSTAYMQLSSLTSEDSAVYFCARDGYDVLYGMDYWGQGTSVTVSS
VL: DIVLTQSPASLAVSLGQRATISCRASKSVSTSGYSYMHWYQQKPGQPPKLLIYLASNLESGVPARFSGSGSGTDFTLNIHPVEEEDAATYYCQHSRELPWTFGGGTKLDIK
B9: 6-O12-A (antibody, V domains shown)
VH: QVQLQQPGTELVKPGASVKLSCKASGYTFTSYWMHWVKQRPGQGLEWIGNINPSNGGTNYNEKFRSKATLTVDKSSSTAYMQLSSLTSEDSAVYYCARLGWFLPLGSWGQGTTLTVSS
VL: QIVLTQSPAIMSASLGEVITLTCSASSSVSYMHWYQQKSGTSPKLLIYSTSNLASGVPSRFSGSGSGTFYSLTISSVEAEDAADYYCHQWSGYMYTFGGGTKLEIK
B10: 4-K13-A (antibody, V domains shown)
VH: QAYLQQSGAELVRPGASVKMSCKASGYTFTSYTVHWVKQTPRQGLEWIGAIYPGNVDTSYNQNFKGKATLTVDKSSSTAYMQLSSLTSEDSAVYFCARDGYYAMDYWGQGTSVTVSS
VL: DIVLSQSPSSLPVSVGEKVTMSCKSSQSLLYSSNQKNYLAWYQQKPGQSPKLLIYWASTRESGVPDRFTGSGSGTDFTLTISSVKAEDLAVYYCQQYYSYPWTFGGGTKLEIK

Substitutions are numbered along the chain they refer to. Several values for one entry are separate records, joined by “and”; a condition that tells them apart may be missing. Identical values can stand only once.

One test has as its target T1, SARS-CoV-2 B.1.1.529 spike trimer variant (SARS-CoV-2 B.1.1.529 (Omicron), UniProt P0DTC2 16-1213). In words: ELISA. (In an ELISA, binding on a coated surface is turned into a signal by an enzyme label.)
As a reminder, the IC50 is the concentration that gives 50% inhibition. A high value points to weaker potency in that assay. As for B1, half-maximal inhibition (IC50) required 23.4 nM.

B2 came in with an IC50 of 10.1 nM.

The target in another test is T2, SARS-CoV-2 BA.2 spike trimer variant (SARS-CoV-2 Omicron BA.2, UniProt P0DTC2 16-1213). Nature of the test: ELISA.
Regarding B1, it took 25.8 nM to reach half-maximal inhibition (IC50).

Molecule B3 returned an IC50 of 97 nM.

B2 showed an IC50 of 13.8 nM. Against the preceding molecule, the IC50 is about 7-fold lower.

The target in another test is T2, SARS-CoV-2 BA.2 spike trimer variant. In words: ELISA. This is another data set of the same source.
By EC50 is commonly meant the concentration that produces a half-maximal response. A low value points to an effect from little substance. As for B1, it took 0.75 nM to reach a half-maximal effect (EC50).

B4 showed a concentration giving a half-maximal response (EC50) of 181 nM.

The molecule B5 displayed a concentration giving a half-maximal response (EC50) of 71.6 nM.

On to B3, for which the EC50 was 61.9 nM.

B6: the midpoint of the response, the EC50, lay at 192 nM.

As for B2, the EC50 came to 1.06 nM.

The next test concerns the target T3, SARS-CoV-2 B.1.617.2 spike trimer variant (SARS-CoV-2 B.1.617.2 (Delta), UniProt P0DTC2 16-1213). Nature of the test: ELISA.
B1: the IC50 is 2.6 µg/mL and 17.5 nM.

Take B7: the IC50 is 9.3 µg/mL and 62.1 nM.

Consider B5, for which the IC50 was 9 µg/mL and 59.9 nM.

As for B3, the IC50 was 2.9 µg/mL and 19.5 nM.

Consider B6, for which the IC50 was 4.2 µg/mL and 28 nM.

On to B2, for which the IC50 is 4.1 µg/mL and 27.4 nM.

The next test deals with T1, SARS-CoV-2 B.1.1.529 spike trimer …. In words: ELISA. The source holds these as a separate data set.
B1 showed an EC50 of 0.48 nM.

Regarding B4, the EC50 was found to be 1.88 nM.

Consider B3, for which a half-maximal effect (EC50) was put at 20.6 nM. This EC50 lies about 11-fold higher than the previous one.

B6 yielded an EC50 of 30.1 nM. This EC50 and that of the molecule before are within 1.5-fold of each other.

B2: the response was half-maximal at 0.5 nM (EC50).

The next test has the same target. In words: ELISA. The source holds these as a separate data set.
As to B1, it took 23.4 nM to reach half-maximal inhibition (IC50).

Molecule B2 yielded a concentration for half-maximal inhibition (IC50) of 10.1 nM.

A further test has as its target T3, SARS-CoV-2 B.1.617.2 spike trimer …. In words: ELISA. The source holds these as a separate data set.
B1 showed an IC50 of 17.5 nM.

B7 returned a 50% inhibitory concentration (IC50) of 62.1 nM.

For the molecule B5, 59.9 nM corresponded to half-maximal inhibition (IC50).

Regarding B3, the IC50 was found to be 19.5 nM.

The molecule B6 registered a half-maximal inhibitory concentration (IC50) of 28 nM.

For B2, 27.4 nM corresponded to half-maximal inhibition (IC50).

A further test deals with T2, SARS-CoV-2 BA.2 spike trimer variant. In words: ELISA. The source holds these as a separate data set.
Regarding B1, the midpoint of inhibition, the IC50, lay at 25.8 nM.

For the molecule B3, the IC50 turned out to be 97.3 nM.

In turn, B2 returned an IC50 of 13.8 nM.

The next test concerns the target SARS-CoV-2 Beta (B.1.351) variant prefusion stabilized spike trimer protein (UniProt P0DTC2 14-1213). In words: ELISA.
Consider B8, for which half-maximal inhibition (IC50) was put at 10.8 nM. This counts as double-digit nanomolar.

On to B1, for which half-maximal inhibition (IC50) was put at 14 nM.

The molecule B7 returned a concentration for half-maximal inhibition (IC50) of 10.8 nM.

In the case of B9, the IC50 amounted to 7.76 nM. The IC50 values of the last two molecules are within 1.5-fold of each other.

B6 came in with a concentration for half-maximal inhibition (IC50) of 84.3 nM.

B2 came in with an IC50 of 16.8 nM. Compared with the last molecule, the IC50 is about 5-fold lower.

The next test deals with T3, SARS-CoV-2 B.1.617.2 spike trimer …. Nature of the test: ELISA. The source holds these as a separate data set.
Take B10: the concentration for a half-maximal effect (EC50) is 29.3 nM and 4.54 µg/mL.

Turning to B1, the concentration for a half-maximal effect (EC50) was 0.218 nM and 0.034 µg/mL.

Regarding B7, the EC50 is 0.522 nM and 0.081 µg/mL.

Regarding B4, the EC50 was 0.12 µg/mL and 0.772 nM.

On to B5, for which the concentration for a half-maximal effect (EC50) is 0.547 nM and 0.085 µg/mL.

Consider B3, for which the 50% effective concentration (EC50) was 0.063 µg/mL and 0.405 nM.

Take B6: the EC50 is 0.096 µg/mL and 0.625 nM.

Regarding B2, the EC50 was 0.251 nM and 0.027 µg/mL.

The values are drawn from US20230115257A1 (published 2023).
